B1: His-tagged mPD-1 (PD1-M5228, ACRO Biosystem) (receptor)
chain: LEVPNGPWRSLTFYPAWLTVSEGANATFTCSLSNWSEDLMLNWNRLSPSNQTEKQAAFCNGLSQPVQDARFQIIQLPNRHDFHMNILDTRRNDSGIYLCGAISLHPKAKIEESPGAELVVTERILETSTRYPSPSPKPEGRFQGM
B2: GNUV201 (antibody, V domains shown)
VH: QVQLVQSGAEVKKPGASVKVSCKASGYTFTGYWMHWVRQAPGQGLEWIGMIHPNSDTTTYNEKFKNRVTMTRDTSISTAYMELSRLRSDDTAVYYCAGTDQAAWFAFWGQGTTVTVSS
VL: DIVMTQTPLSLSVTPGQPASISCRSSQNIVHSQGDTYLEWYLQKPGQSPQLLIYKVSKRFSGVPDRFSGSGSGTDFTLKISRVEAEDVGVYYCFQGSHVPWTFGGGTKVEIK

Experiments:
RMP1-14 [1] = assay: SPR; pH 6.0
RMP1-14 [2] = assay: SPR; pH 7.4
[3] = target: B1; assay: SPR; pH 7.4
[4] = target: T1, hPD-1 (PD-1-H5221, ACRO Biosystems) (human, UniProt Q15116 25-170); assay: SPR; pH 7.4
T1 sequence (Q15116 25-170): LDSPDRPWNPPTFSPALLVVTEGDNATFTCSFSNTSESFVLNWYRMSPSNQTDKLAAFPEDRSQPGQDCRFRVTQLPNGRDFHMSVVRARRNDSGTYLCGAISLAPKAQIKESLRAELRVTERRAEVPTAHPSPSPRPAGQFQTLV

[5] = target: B1; assay: SPR; pH 7.4
[6] = target: T1, hPD-1 (PD-1-H5221, ACRO Biosystems); assay: SPR; pH 7.4; remark: listed apart in the source
[7] = target: B1; assay: SPR; pH 6.0
[8] = target: T1, hPD-1 (PD-1-H5221, ACRO Biosystems); assay: SPR; pH 6.0
[9] = target: B1; assay: SPR; pH 6.0

Row | Binder | Kd (RMP1-14 [1]) [nM] | koff (RMP1-14 [1]) [s⁻¹] | Kd (RMP1-14 [2]) [nM] | koff (RMP1-14 [2]) [s⁻¹] | Kd [3] [nM] | Kd [4] [nM] | koff [5] [s⁻¹] | koff [6] [s⁻¹] | koff [7] [s⁻¹] | koff [8] [s⁻¹] | Kd [9] [nM]
1 | B1 | 2.88 | 0.00025 | 2.43 | 0.00028 |  |  |  |  |  |  | 
2 | B2 |  |  |  |  | 0.38 | 0.41 | 9e-05 | 6e-05 | 5e-05 | 3e-05 | 0.18

From paper PMC11088064 (2024)
